Test results as given in the supplement of paper PMC7125110.
± gives the standard error. Fewer inactive variants are shown than the library holds.

B1: glmS ribozyme (parent)
chain: AUAAAAGCGCCAGAACUACAGAAAUGUAGUUGACGAGGAGGAGGUUUAUCGAAUUUUCGGCGGAUGCCUCCAAA

Tests used:
Conditions in all cases: with glucosamine-6-phosphate
glucosamine-6-phosphate [1] = variants of: B1; experiment: self-cleavage kobs at 640 uM GlcN6P; higher = faster cleavage; RNA array
Procedure, shortened: (§1)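 Weighted Michaelis–Menten fits across concentrations supplied kcat and KM, based on kobs from one- or two-exponential decay fits to normalised per-tile medians. The data came from barcoded ribozyme variants transcribed in situ by E. coli RNA polymerase on sequenced MiSeq chips and tracked at 37 °C by a hybridised Cy3 probe. Glucosamine-6-phosphate (40 μM to 10 mM) in HEPES/KCl/Mg(OAc)2 buffer was flowed in.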

glucosamine-6-phosphate [2] = variants of: B1; experiment: self-cleavage kobs at 2500 uM GlcN6P; higher = faster cleavage; RNA array
Procedure, shortened: as §1

glucosamine-6-phosphate [3] = variants of: B1; experiment: self-cleavage kobs at 10000 uM GlcN6P; higher = faster cleavage; RNA array
Procedure, shortened: as §1

Variant	self-cleavage kobs at 640 uM GlcN6P (glucosamine-6-phosphate [1]) [s⁻¹]	self-cleavage kobs at 2500 uM GlcN6P (glucosamine-6-phosphate [2]) [s⁻¹]	self-cleavage kobs at 10000 uM GlcN6P (glucosamine-6-phosphate [3]) [s⁻¹]
AUAAAAGCGUCAGAAUUACAGAAAUGUAGUUGACGAGGUGGAGGUUUAUCGAAUUUUCGUCGGAUGGCGCCAAA	< 1e-05	< 1e-05	–
AUAAAAGCGCCAGAACUACAGAAAUGUAGUUGACGAGGAGGAGCUUUAUCGAAUUUUCGGCGGAUGCCUACAAA	< 1e-05	< 1e-05	< 1e-05
AUAAAAGCGCCAGAACUACAGAAAUGUAGUUGACGAAGAGGAGGCUUAUCGAAUUUUCGGCGGAUGCCUCCAAA	5.03e-05 ± 1.6e-05	6.95e-05 ± 1.3e-05	0.000173 ± 4.9e-05
AUAAAAGCGCCAUAACUACAGAAAUGUAAUAGACGACGAGGAGGUUUAUCGAAUUUUCGGCGGAUGCCUCCAAA	< 1e-05	–	–
AUAAAAGCGCCAGAACUACAGAAAUGUAGUUGACCAGGAGGAUGUUUAUCGUAUUUUCGGUGGAUGCCUCCAAA	< 1e-05	< 1e-05	–
AUAAAAGCGCCAGCACUACAGAAAUGUAGUUGACGAGGAGGUGGUUUAUCGAAUUUUCGGCGGUUGCCUCCAAA	< 1e-05	< 1e-05	–
AUAAAAGCGCCCGAACUACAGAAAUGUAGUUGACGAGGAGGAGGUAUAUCUAAGUUUCGAAGGAUGCCUACAAA	< 1e-05	–	–
AUAAAAGCGCCAGCACUACAGAAAUGUAGUUGACGAAGUGGAGGUUUAUCGAAUUUUCGGCGGAUGCAUCCAAA	< 1e-05	–	–
AUAAAAGCGCCGGAACUACAGAAAUGUAGUUGACGCGGAGGAGGCUUAUCGAAUUUUCGUCGGAUGCCUCCAAA	< 1e-05	–	–
AUAAAAUCGCCAGAACUACAGAAAUGUAGUUGACGAGGAGGAGGUAUAUCGAAUUUUCGGCGGAUGCUUCCAAA	< 1e-05	< 1e-05	–
AUAAAAGCGCCAGAACUACAGAAAUGUAGUUGACGAGGAGGAGGUUUAUCCAAUUAUCGGCGGAUGCCUCCAAA	< 1e-05	–	< 1e-05
AUAAAAGCGCCAGAACUACAGAAAUGUAGUUGACGAGGAGGGGGUUUAUCGAAUUUUCGGCGGGUGCCUACAAA	4.59e-05 ± 2.2e-05	0.000247 ± 6.8e-05	–
AUAAAAGCGCCAGAACUACAGAAAUGUAGUUGAAGAGGACGAGGUUUAUCGAAUUUUCGGUGGAUGCCUCCAAA	< 1e-05	–	–
AUAAAAGCAACAGAACUACAGAAAUGUAGCUGACGAGGAGGAGGUUUAUCGAAUUUUCGGCGGAUGCCUCCAAA	< 1e-05	< 1e-05	–
AUAAAAGCGCCAGAACUACAGAAAUGUAGUUGACGAGGAGGAGGGUUAUCGAAUCUUCGGCGGAUGCUUCCAAA	< 1e-05	–	–
AUAAAAGCGCCAGAACUACAGAAAUGUAGUUAACGAGGAGGAGGUUUAUCGAAUUUUCGGCGGAUUCGUCCAAA	0.000111 ± 3.9e-05	–	–
AUAAAAGCGCCAGAACUACAGAAAUGUACUUGACGAGGAGGGUGUUUAUCCAAUUUUCGGCCGAUGCCUCCAAA	< 1e-05	–	–
AUAAAAGCGCCAGAACUACAGAAAUGUAGUCGACCAGGAGGAGGUUUAUUGAAUUUUCGGCGGAUGCCUCCAAA	< 1e-05	< 1e-05	–
AUAAAAGCGCCAGAACUACAGAAAUGUAGUUGACGAGGAGGAGGCGUAUCGAAUUUUCGGCGGAUGGCUCCAAA	9.48e-05 ± 2.9e-05	–	–
AUAAAAGCGCCAGAACUACAGAAAUGUACUUGACGAGGAAGAGGUUUAUCGAAUUUUCGGCGGAGGCCUCCAAA	< 1e-05	–	–
AUAAAAGCGCCACAACUACAGAAAUGUAGUUGAGCAGGAGGAGGUUUAUCGCAUUUUCGGCGGAUGCCUCCAAA	< 1e-05	< 1e-05	–
AUAAAAGCGCCAGAACUACAGAAAUGUAGUAGACGAGGAGGAGGUUCAUCGAAGUUUCGGCGGAUGCCUCCAAA	0.000284 ± 6e-05	0.00068 ± 0.00013	–
